This note sets out measurements from the PETadex activity labels (doi:10.1038/s41467-023-40233-w).

Substrate in the series: pcPET (post-consumer)
The series is described as follows: Proxy for plastic degradation [Released monomer concentration (HPLC/LC-MS) (TPA+MHET+BHET)]. The following applies: pH 9.

B1: unnamed (protein)
chain: MLSFLRSTGRPERRRASLPALLLFTAALVASGLTAAPAAQAADNPYQRGPDPTNASIEAATGPFAVGTQPIVGASGFGGGQIYYPTDTSQTYGAVVIVPGFISVWAQLNWLGPRLASQGFVVIGIETSTITDLPDPRGDQALAALDWATTRSPVASRIDRTRLAAAGWSMGGGGLRRAACQRPSLKAIVGMAPWNGEKNWSCVTVPTLFFGGSSDAVASPNDHAKPFYNSITRAEKDYIELCNADHFFPTSANTTMAKYFISWLKRWVDNDTRYTQFLCPGPSTGLFAPVCASMNTCPF
On to B1, for which the “Proxy for plastic degradation” value (40 °C, 24 h) was 1200 µM and the “Proxy for plastic degradation” value (60 °C, 6 h) is 1020 µM.

B2: unnamed (protein)
chain: MLSFLRSTGRPERRRASLPALLLFTAALVASGLTAAPAAQAADNPYQRGPDPTNASIEAATGPFAVGTQPIVGASGFGGGQIYYPTDTSQTYGAVVIVPGFISVWAQLNWLGPRLASQGFVVIGIETSVITDLPDPRGDQALAALDWATTRSPVASAIDRTRLAAAGWSMGGGGLRRAALQRPSLKAIVGMAPWNGERNWSAVTVPTLFFGGSSDAVASPNDHAKPFYNSITRAEKDYIELRNADHFFPTSANTTMAKYFISWLKRWVDNDTRYTQFLCPGPSTGLFAPVSASMNTCPF
For the protein B2, under “40 °C, 24 h”, the “Proxy for plastic degradation” value is 225 µM.

B3: unnamed (protein)
chain: MLSFLRSTGRPERRRASLPALLLFTAALVASGLTAAPAAQAADNPYQRGPDPTNASIEAATGPFAVGTQPIVGASGFGGGQIYYPTDTSQTYGAVVIVPGFISVWAQLNWLGPRLASQGFVVIGIETSVITDLPDPRGDQALAALDWATTRSPVASRIDRTRLAAAGWSMGGGGLRRAALQRPSLKAIVGMAPWNGERNWSAVTVPTLFFGGSSDAVASPNDHAKPFYNSITRAEKDYIELCNADHFFPTSANTTMAKYFISWLKRWVDNDTRYTQFLCPGPSTGLFAPVCASMNTCPF
Take B3: the “Proxy for plastic degradation” value (40 °C, 24 h) amounted to 890 µM.

B4: unnamed (protein)
chain: MLSFLRSTGRPERRRASLPALLLFTAALVASGLTAAPAAQAADNPYQRGPDPTNASIEAATGPFAVGTQPIVGASGFGGGQIYYPTDTSQTYGAVVIVPGFISVWAQLNWLGPRLASQGFVVIGIETSVITDLPDPRGDQALAALDWATTRSPVRSRIDRTRLAAAGWSMGGGGLRRAALQRPSLKAIVGMAPWNGERNWSAVTVPTLFFGGSSDAVASPNDHAKPFYNSITRAEKDYIELRNADHFFPTSANTTMAKYFISWLKRWVDNDTRYTQFLCPGPSTGLFAPVSASMNTCPF
As for B4, the “Proxy for plastic degradation” value (40 °C, 24 h) came to 870 µM.

B5: unnamed (protein)
chain: MLSFLRSTGRPERRRASLPALLLFTAALVASGLTAAPAAQAADNPYQRGPDPTNASIEAATGPFAVGTQPIVGASGFGGGQIYYPTDTSQTYGAVVIVPGFISVWAQLNWLGPRLASQGFVVIGIETSVITDLPDPRGDQALAALDWATTRSPVASRIDRTRLAAAGWSMGGGGLRRAALQRPSLKAIVGMTPWNGERNWSAVTVPTLFFGGSSDAVASPNDHAKPFYNSITRAEKDYIELRNADHFFPTSANTTMAKYFISWLKRWVDNDTRYTQFLCPGPSTGLFAPVSASMNTCPF
On to B5, for which the “Proxy for plastic degradation” value (40 °C, 24 h) was found to be 495 µM.

B6: unnamed (protein)
chain: MLSFLRSTGRPERRRASLPALLLFTAALVASGLTAAPAAQAADNPYQRGPDPTNASIEAATGPFAVGTQPIVGASGFGGGQIYYPRDTSQTYGAVVIVPGFISVWAQLNWLGPRLASQGFVVIGIETSVITDLPDPRGDQALAALDWATTRSPVASRIDRTRLAAAGWSMGGGGLRRAALQRPSLKAIVGMAPWNGERNWSAVTVPTLFFGGSSDAVASPNDHAKPFYNSITRAEKDYIELRNADHFFPTSANTTMAKYFISWLKRWVDNDTRYTQFLCPGPSTGLFAPVSASMNTCPF
Turning to B6, for the setting “40 °C, 24 h”, the “Proxy for plastic degradation” value came out at 485 µM.

B7: unnamed (protein)
chain: MLSFLRSTGRPERRRASLPALLLFTAALVASGLTAAPAAQAADNPYQRGPDPTNASIEAATGPFAVGTQPIVGASGFGGGQIYYPTDTSQTYGAVVIVPGFISVWAQLAWLGPRLASQGFVVIGIETSVITDLPDPRGDQALAALDWATTRSPVASRIDRTRLAAAGWSMGGGGLRRAALQRPSLKAIVGMAPWNGERNWSAVTVPTLFFGGSSDAVASPNDHAKPFYNSITRAEKDYIELRNADHFFPTSANTTMAKYFISWLKRWVDNDTRYTQFLCPGPSTGLFAPVSASMNTCPF
Take B7: for the setting “40 °C, 24 h”, the “Proxy for plastic degradation” value is 720 µM.

B8: unnamed (protein)
chain: MLSFLRSTGRPERRRASLPALLLFTAALVASGLTAAPAAQAADNPYQRGPDPTNASIEAATGPFAVGTQPIVGASGFGGGQIYYPTDTSQTYGAVVIVPGFISVWAQLNWLGPRLASQGFVVIGIETSVITDLPDPRGDQALAALDWATTRSPVASRIDRTRLAAAGWSMGGGGLRRAALQRPSLKAIVGMAPWNGEKNWSAVTVPTLFFGGSSDAVASPNDHAKPFYNSITRAEKDYIELRNADHFFPTSANTTMAKYFISWLKRWVDNDTRYTQFLCPGPSTGLFAPVSASMNTCPF
For the protein B8, the “Proxy for plastic degradation” value (40 °C, 24 h) stood at 950 µM.

B9: unnamed (protein)
chain: MLSFLRSTGRPERRRASLPALLLFTAALVASGLTAAPAAQAADNPYQRGPDPTNASIEAATGPFAVGTQPIVGASGFGGGQIYYPTDTSQTYGAVVIVPGFISVWAQLNWLGPRLASQGFVVIGIETSVITDLPDPRGDQALAALDWATTRSPVRSRIDRTRLAAAGWSMGGGGLRRAACQRPSLKAIVGMAPWNGERNWSCVTVPTLFFGGSSDAVASPNDHAKPFYNSITRAEKDYIELCNADHFFPTSANTTMAKYFISWLKRWVDNDTRYTQFLCPGPSTGLFAPVCASMNTCPF
For the protein B9, the “Proxy for plastic degradation” value amounted to 948 µM (40 °C, 24 h) and 360 µM (60 °C, 6 h).

B10: unnamed (protein)
chain: MLSFLRSTGRPERRRASLPALLLFTAALVASGLTAAPAAQAADNPYQRGPDPTNASIEAATGPFAVGTQPIVGASGFGGGQIYYPTDTSQTYGAVVIVPGFISVWAQLNWLGPRLASQGFVVIGIETSVITDLPDPRGDQALAALDWATTRSPVASRIDRTRLAAAGWSMGGGGLRRAALQRPSLKAIVGMAPWNGERNWSAVTVPTLFFGGSSDAVASPNDHAKPFYNSITRAEKDYIELRNADHFFPTSANTTMAKYFISWLKRWVDNDTRYRQFLCPGPSTGLFAPVSASMNTCPF
For B10, the “Proxy for plastic degradation” value (40 °C, 24 h) stood at 270 µM.

B11: unnamed (protein)
chain: MLSFLRSTGRPERRRASLPALLLFTAALVASGLTAAPAAQAADNPYQRGPDPTNASIEAATGPFAVGTQPIVGASGFGGGQIYYPTDTSQTYGAVVIVPGFISVWAQLNWLGPRLASQGFVVIGIETSVITDLPDPRGDQALAALDWATTRSPVASRIDRTRLAAAGWSMGGGGLRRAALQRPSLKAIVGMAPWNGERNWSAVTVPTLFFGGSSDAVASPNDHAKPFYNSITRAEKDYIELRNADHFFPTSANTTMAKYFISWLKRWVDNDTRYTQFLCPGPSTGLFAPVSASMNTCPF
In the case of B11, the “Proxy for plastic degradation” value (60 °C, 6 h) worked out at 60 µM.
